Laboratory results from US20250026841A1.

Target: p95HER2 expressed on cells (p95HER2-HEK293, p95HER2-expressing NCI-H292) (human) (UniProt P04626)
Experiment: flow cytometry on p95HER2-expressing NCI-H292 cells, ug/mL is the unit of the x axis

EC50 [µg/mL]	Binder
0.0659	anti-p95HER2 antibody clone R4-15 (antibody, human IgG1, V domains shown) VH: QITLKESGPTLVKPTQTLTLTCTFSGFSLSSGGVGVGWIRQPPGKALEWLALIYWDDDKRYSPSLKSRLTITKDTSKKQVVLTMTNMDPVDTATYYCAHLDYPENYFDQWGQGTLVTVSS VL: DIQMTQSPSSLSASVGDRVTFTCRASQSISTYLNWYQQKPGKAPKLLIYAASTLQSGVPSRFSGSGSGTDFTLAISSLQPEDFATYFCQQSYSFPTFGQGTRLEIKR
0.399	anti-p95HER2 antibody clone R4-5 (antibody, human IgG1, kappa, V domains shown) VH: QITLKESGPALVKPTQTLTLTCTFSGFSLSTSGVGVGWIRQPPGKALEWLALIYWDDDKRYSPSLKSRLTITKDTSKNQVVLTMTNMDPVDTATYYCAHSRLPYNSHGYWGQGTTVTVSS VL: DIQMTQSPSSLSASVGDRVTITCQASQAIGNYLSWYQQKPGRAPKLLIYAASTLHSGVPSRFSGSGSGTDFTLTITSLQPDDFATYYCQQSYSVPVTFGLGTKLEIKR
